According to patent US20100196385A1:

B1: 4B4 IgG1 (antibody, V domains shown)
VH: QVLLIQSGAEVKKPGASVQVSCKASGYTFTNYGVIWVRQAPGQGLEYMGWISAYNGNTNYAQKLQDRVTMTSDTSTTTAYMELRSLRSDDTAVYYCARELGSSFDYWGQGTLVTVSS
VL: SYELTQPPSVSVSPGQTARITCSGDALPKKYAYWYQQKSGQAPVLVIYEDIKRPSGIPERFSGSSSGTMATLTISGAQVEDEADYYCFSTDNSGDHSVFGGGTKLTVL
B2: 20G8 (antibody, IgG4, V domains shown)
VH: QVQLVQSGAEVKKPGASVKVSCKASGYTFTSYGISWVRQAPGQGLEWMGWISVYNGNTNYAQKLQGRVTMTTDTSTSTAYMEVRSLRSDDTAVYYCARDRVPRIPRTTEAFDIWGRGTMVTVCS
VL: QSVLTQPPSASGTPGQRVTISCSGSSSNIGSYYVYWYQQLPGTAPKLLIYRDNQRPSGVPDRFSGSKSGTSASLAIRGLRSDDEADYYCAAWDDSLSGHWVFGGGTKLTVL
B3: 1D4 (antibody, IgG4, V domains shown)
VH: QLQLQESGPGLVKPSETLSLTCTVSGGSISSSSYYWGWIRQPPGKGLEWIGSFYYSRSTYYNPSLKSRVTISVDTSKNQFSLKLSSVTAADTAVHYCARGSIAVPDAFDIWGQGTMVTVSS
VL: SYELTQPPSVSVSPGQTASITCSGDKLGDKFACWYQQKPGHSPVLVVYQDNKRPSGIPERFSGSNSGNSATLTISGTQAMDEADYYCQAWDSNTAVFGGGTKLTVL
B4: 12A1 (antibody, IgG4, V domains shown)
VH: QVQLVQSGAEVKRPGASVKVSCKASGYTFTSYGITWVRQAPGQGLEYMGWISTYNGNTDYAQKFQGRVTMTADISTSTAYMELRSLRSDDTAVYYCARERGSYFDYWGQGTLVTVSS
VL: SYELTQPPSVSVSPGQTARITCSGDTLPKKYAYWYQQKSGQAPVLVIYEDIKRPSGIPERFSGSSSGTMATLTISGAQVEDEADYYCFSTDSGGNHKFGGGTKLTVL
B5: 4B3 (antibody, IgG4, V domains shown)
VH: QVQLVQSGAEVRKSGASVKVSCKASGYSFTTYDINWVRQATGQGLEWMGWMNPNSGYTDYAQKFQGRVTLTRNMSIDTAYMELSSLRSEDTAVYYCARAYYYDSSAYYLFDYWGQGTLVTVSS
VL: DIQMTQSPSSLSASVGDRVTITCRASQGISNYLAWFQQKPGKAPKSLIYAASSLQSGVPSKFSGSGSGTDFTLTISSLQPEDFATYFCQQYISYPLTFGGGTKVEI
B6: 2H10 (antibody, IgG4, V domains shown)
VH: QVQLVESGGGVVQPGRSLRLSCAASGFTFSRHGMHWVRQAPGKGLEWVAVVWFDGSNIYYADSVKGRFTISRDNSKNTLYLQMNSLRAEDTAMYYCARDSRIAAADYWGQGTLVTVSS
VL: SYELTQPPSVSVSPGQTVSITCSGDKLGDKYVCWYQQKPGQSPVLVIYQESKRPSGIPERFSGSSSGNTATLTISGTQAMDEADYYCQTWDSSLVVFGGGTKLTVL
B7: 4B4 (antibody, IgG4, V domains shown)
VH: QVLLIQSGAEVKKPGASVQVSCKASGYTFTNYGVIWVRQAPGQGLEYMGWISAYNGNTNYAQKLQDRVTMTSDTSTTTAYMELRSLRSDDTAVYYCARELGSSFDYWGQGTLVTVSS
VL: SYELTQPPSVSVSPGQTARITCSGDALPKKYAYWYQQKSGQAPVLVIYEDIKRPSGIPERFSGSSSGTMATLTISGAQVEDEADYYCFSTDNSGDHSVFGGGTKLTVL
B8: 9G8 (antibody, IgG4, V domains shown)
VH: QLQLQESGPGLVKPSETLSLSCTVSGGSISSSSSYWGLIRQPPGKGLEWIGSIYYSGSTYYSPSLKSRVSISVDTSKNQFSLKLSSVTAADTAVYFCARQGYGGHPDVFDIWGQGTMVTVSS
VL: SSELTQSPSVSVSPGQTARITCSGDKLGDVYVCWYQQKTGQSPVLVIYEDTKRPSGIPERFSGSNSGNTATLTISGTQVMDEADYYCQAWDSTTAVIFGGGTKLTVL
B9: 17F3 (antibody, IgG2, V domains shown)
VH: QVQLVQSGAEVKKPGASVKVSCKASGYTFTNYGISWVRQAPGQGLEWMGWINAYNGNTNYAQNLQGRVTMTTDTSTNTAYMELRSLRSDDTAVYYCARVAPAAFFDYWDQGTLVTVSS
VL: SYELTQPPSVSVSPGQTASITCSGDKLGDKYVCWYQQKPGQSPVLVIYQDNKRPSGIPERFSGSNSGNTATLIISGTQAMDEADYYCQAWDSSTVFGGGTKLTVL
B10: 3A7 (antibody, IgG4, V domains shown)
VH: EVQVVESGGGLVQPGGSLRLSCEASGFTFSNYWMIWVRQAPGKGLEWVASIKEDGSEKYYVDSVKGRFTISRDNAKSSLYLQMNSLRAEDTAVYYCVRDWELRGHYYYHGMDVWGQGTTVTVSS
VL: DIQMTQSPSSLSASVGDRVTITCRASLDIRNDLGWFLQKPGKAPKRLIYAASSLQSGVPSRFSGSGSGTEFTLTINSLQPEDFATYYCLQHRNYPFTFGPGTKVDFK

The binders below were run against full length cynomolgus monkey DLL4 (cynomolgus monkey) (assay: FACS competition vs Notch1/Fc, HEK293 cells with cynomolgus DLL4).
B1 was tested, and the IC50 was 500 pM.

Each binder was assayed against full length cynomolgus monkey DLL4 (cynomolgus monkey) (assay: FMAT, hybridoma supernatant, 293T cells with cynomolgus DLL4).
In the case of B2, the Count is reported as 128, the FL1 is reported as 11200 and the FL1 x count is reported as 1.44e+06. In the case of B3, the Count is reported as 103, the FL1 is reported as 11700 and the FL1 x count is reported as 1.21e+06. For B4, the Count was 106, the FL1 was 12900 and the FL1 x count was 1.37e+06. Work on B5 yielded a Count of 97, an FL1 of 12600 and an FL1 x count of 1.22e+06. With B6 the Count was 103, the FL1 was 13100 and the FL1 x count was 1.35e+06. B7 gave a Count of 117, an FL1 of 12300 and an FL1 x count of 1.04e+09. Binder B8 has a Count of 120, an FL1 of 11700 and an FL1 x count of 1.41e+06. B9 was tested, and the Count was 120, the FL1 was 10700 and the FL1 x count was 1.29e+06. With B10 the Count was 121, the FL1 was 9960 and the FL1 x count was 1.2e+06.

Each binder was assayed against DLL4 extracellular domain (R&D systems, catalog #1506-D4/CF) (UniProt Q9NR61) (assay: cell-based or functional assay).
Sequence of DLL4 extracellular domain (R&D systems, catalog #1506-D4/CF) (Q9NR61 27-529 limits assumed): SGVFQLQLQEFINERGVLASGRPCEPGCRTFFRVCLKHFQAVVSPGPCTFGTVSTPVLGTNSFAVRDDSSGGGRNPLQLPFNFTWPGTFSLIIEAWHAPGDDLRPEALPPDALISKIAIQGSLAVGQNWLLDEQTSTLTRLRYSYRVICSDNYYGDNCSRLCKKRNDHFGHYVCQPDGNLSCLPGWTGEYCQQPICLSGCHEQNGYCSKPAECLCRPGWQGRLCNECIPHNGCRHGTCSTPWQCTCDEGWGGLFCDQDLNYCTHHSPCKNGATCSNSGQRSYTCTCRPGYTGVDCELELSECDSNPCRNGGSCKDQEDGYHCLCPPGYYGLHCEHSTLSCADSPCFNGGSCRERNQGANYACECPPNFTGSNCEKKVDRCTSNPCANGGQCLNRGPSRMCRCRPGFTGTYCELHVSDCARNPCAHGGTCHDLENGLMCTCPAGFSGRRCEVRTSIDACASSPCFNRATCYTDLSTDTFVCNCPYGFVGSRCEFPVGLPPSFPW
In the case of B2, the % inhibition 1 µg/ml, AVERAGE (HUVEC proliferation on coated DLL4) is reported as 85%, the % inhibition 1 µg/ml, N = 1 (HUVEC proliferation on coated DLL4) is reported as 94% and the % inhibition 1 µg/ml, N = 2 (HUVEC proliferation on coated DLL4) is reported as 75%. It also gave a % inhibition 10 µg/ml, AVERAGE (HUVEC proliferation on coated DLL4) of 98%, a % inhibition 10 µg/ml, N = 1 (HUVEC proliferation on coated DLL4) of 103% and a % inhibition 10 µg/ml, N = 2 (HUVEC proliferation on coated DLL4) of 93%.

What follows are binders tested against full length cynomolgus monkey DLL4 (cynomolgus monkey) (assay: FACS titration, HEK293 cells with cynomolgus DLL4).
B1 gave a Kd of 81 pM.
